# Data published in the DeepSol protein solubility set.
# Test: soluble on expression in E. coli; label from the status in PepcDB or PDB records
row,Sequence,soluble on expression in E. coli
1,MHHHHHHSSGRENLYFQGIRMSQILEPRSEEDWTAHRTRIVCTMGPACWNVDTLVKMIDAGMNVCRLNFSHGDHETHARTVQNIQEAMKQRPEARLAILLDTKGPEIRTGFLKDHKPITLQQGATLKIVTDYNLIGDETTIACSYGALPQSVKPGNTILIADGSLSVKVVEVGSDYVITQAQNTATIGERKNMNLPNVKVQLPVIGEKDKHDILNFGIPMGCNFIAASFVQSADDVRYIRGLLGPRGRHIRIIPKIENVEGLVNFDEILAEADGIMIARGDLGMEIPPEKVFLAQKMMIAKCNVVGKPVITATQMLESMIKNPRPTRAEAADVANAVLDGTDCVMLSGETANGEFPVITVETMARICYEAETCVDYPALYRAMCLAVPPPISTQEAVARAAVETAECVNAAIILALTETGQTARLIAKYRPMQPILALSASESTIKHLQVIRGVTTMQVPSFQGTDHVIRNAIVVAKERELVTEGESIVAVHGMKEEVAGSSNLLKVLTVE,soluble
2,MGHHHHHHSHMNSIVNGLYTFMSTTVVPAVTEQAANLVGGASALAEGATQALTQISQTALEWGSGSEDATASSEVFSWEQQGAAAASSDLQEDKKETTEDVHQEAIGASSPNTSIEWEVIHENPDETGPIRHNQFEMVQNNYEWMKNSK,not soluble
3,MVFDTHLHTLFSTDSKMNIEEAIDAGEKKNLGIIITEHIDLNYPVKGEFVFDIDKYFKEYNKYRSNKVLLGVEIGMGEEIKEQNKSINDKYEFDYVLGSIHLLNGLDLYEKTIYKSSPKKEVFEMYFKTMLACLRCHEYIDSLAHIDYISRYAAYHDGEIYYNEYSDYIDEVLKFIVDREIVIEINTRRLNKKEVCENLMPIYKRYSELGGRFVTIGSDSHYKDSIGLNFKNALKMAENCNLKPVFFEKRLMKYA,not soluble
4,MLSPIENERSEIPSPEKLKLVEEPSDDESKFSNYDSDDWETLSDDLRLLDEEWGKSGGFDVDFSKVRHRFGRGAVHLDDDNMVSEPHETNRDLLNRLSNMAISFYNDKTGIKLELVKVLRANFHPSAAITLYITFEANDPSDGNQTKRYQAVVRYLSFDIEVCSCNPEPSSS,soluble
5,MSLIYAQILAGGKGTRMGNVSMPKQFLPLNGKPIIVHTVEKFILNTRFDKILISSPKEWMNHAEDNIKKYISDDRIVVIEGGEDRNETIMNGIRFVEKTYGLTDDDIIVTHDAVRPFLTHRIIEENIDAALETGAVDTVIEALDTIVESSNHEVITDIPVRDHMYQGQTPQSFNMKKVFNHYQNLTPEKKQILTDACKICLLAGDDVKLVKGEIFNIKITTPYDLKVANAIIQERIANEGHHHHHH,soluble
6,MRSDKVGSIKDLPSLPAGVKFDPSDKEILMHLEAKVSSDKRKLHPLIDEFIPTLEGENGICYTHPEKLPGVSKDGQVRHFFHRPSKAYTTGTRKRRKVSTDEEGHETRWHKTGKTRPVLSQSGETGFKKILVLYTNYGRQKKPEKTNWVMHQYHLGSSEDEKDGEPVLSKVFYQTQPRQCGSMEPKPKNLVNLNRFSYENIQAGFGYEHGGKSEETTQVIRELVVREGDGSCSFLSFTCDASKGKESFMKNQ,soluble
7,MATSSAASVDMEDIQTVDLMSELLRRMKCASKPDKRLVFIGPPGSGKGTQSPVIKDEFCLCHLSTGDMLRAAVAAKTPLGVKAKEAMDKGELVSDDLVVGIMDEAMNRPKCQKGFILDGFPRTVTQAEKLDEMLNRRGAQIDKVLNFAIDDSVLEERITGRWIHPSSGRSYHTKFAPPKVPGVDDLTGEPLIQRKDDNADVLRSRLDAFHKQTQPVIDYYAKKENLVNIPAEKAPEEVTKVVKKVVST,soluble
8,MNKVAQYYRELVASLNERLRNGERDIDALVEQARERVIKTGELTRTEIDELTRAVRRDLEEFAMSYEESLKEESDSVFMRVIKESLWQELADITDKTQLEWREIFQDLNHHGVYHSGEVVGLGNLVCEKCHFHLPIYTPEVLTLCPKCGYDQFQRRPFEP,not soluble
9,MGSDKIHHHHHHMKILMLCREPRLYSCQRLKQACQDRNIQLDILDPNRMLIKLAVIDAQMQAQLYYQAGEIYDKCRAEPSLLAEYDAVLPRFGVSSTMMGCRVLDYFAAKKVVILNNSTAFRLARDKWSSLQVLAAQHIPIPTSSFAGALFSTAAHISQHRIPLVIKTCSGSQGVGVMLSESKVHSVSLLQTLQQAKVDNLLQDFVVEARGQDIRAFVIGDRVVAAIERNGLENDFRANIHQGGSASVIQLNTAEQQLAVLAAKTIGLDVAGVDLIRSNKGLLVLEVNACPGLDGIEKASKLDIAGLIIDYLLAMKK,not soluble
10,MLSTVFRRTMATGRHFIAVCQMTSDNDLEKNFQAAKNMIERAGEKKCEMVFLPECFDFIGLNKNEQIDLAMATDCEYMEKYRELARKHNIWLSLGGLHHKDPSDAAHPWNTHLIIDSDGVTRAEYNKLHLFDLEIPGKVRLMESEFSKAGTEMIPPVDTPIGRLGLSICYDVRFPELSLWNRKRGAQLLSFPSAFTLNTGLAHWETLLRARAIENQCYVVAAAQTGAHNPKRQSYGHSMVVDPWGAVVAQCSERVDMCFAEIDLSYVDTLREMQPVFSHRRSDLYTLHINEKSSETGGLKFARFNIPADHIFYSTPHSFVFVNLKPVTDGHVLVSPKRVVPRLTDLTDAETADLFIVAKKVQAMLEKHHNVTSTTICVQDGKDAGQTVPHVHIHILPRRAGDFGDNEIYQKLASHDKEPERKPRSNEQMAEEAVVYRNLM,soluble
11,MAHHHHHHMGKKRFYAVAVGRQTGVFSTWEECQKQVSGFSGARFKSFLTLQEAQAYASGVQDVEPGSVGTSLVADSHTPVLVGVKRALSLDVTLDAVEVDAADDGNEVDDESKQQVLSPEWVEARKREAVVVYVDGACRNNGSRSRERRPRAGFGGFYGDGDSRNFKFPLPAHEPQTNQRAELSALIHVLRVALDSHPCYNLCVYSDSKYTVMGVNSYLHRWERNGFKTAGGGDVANIDLWSQLTKLRNRHLSRCAERFTMEFRFKASLAAIAARAVALQLKHVPGHAGVYGNEMADRLAVEACESPFG,not soluble
12,MSTLRVACVIPTYNGCQDLARLLDSLEIQSAPFDTLIVDSSSSDGTYELALARCANVLRIDSRDFNHGGTRQLMVERNADYDLYVFMTQDAYLEDAEGLARIVAPFADPQVGAVCGRQLPHLDASPLASHARLFNYPPTSQVKSLADVPALGIKTAFMSNSFSAYRREALMQVGGFPNHVILSEDMYVGAKMLLAGWKVAYEGSACCRHSHNYSLKEEFRRYFDIGVFHAREPWIRQAFGGAGGEGLRYVQSELRFLGPGRLGQWPGSLLRNAVKLFAYKLSQQERYLPLGLKRKLGMYKRYWDSPYALEHHHHHH,soluble
13,MSLNVVNSIFSKLSIAPMIDWTNSPFRTLMRLLAPNALLYTEMQTTGAVQNNPDRALYFNSVEHPLAIQLGGADKSALVKCAIIAEQKGFNEINLNLGCPSDKVQAGRFGACLMKEPEHVADCIRAIKQVVGIPVTAKTRIGIDNQDSYEFFRSFSLHLVEAGCDKLIIHARKAWLNGLNPKQNRTIPPVNYDYVYELKKEIPHIFITINGNILTVEEINNHLKHVDGVMLGRLACDNPYQIAEIHQALYPEFIKIKRSQLLMNYLDYWFDQSRANLSLSILVKPLFNLAFGLPGAKHWKKKLMNIIQEKNTSGFSELIQYLLNLEAINQVEEGHHHHHH,soluble
14,MGGFGVGKTTLVRSVSEIRPLNTEEVMTQAGVGVDETGGVTSKTTTTVAFDFGRISLNDRMVLYLFGAPGQERFWFLWDRLFSGTLGAVVLVDTRRMDDSWYAIDRLEHHRTPFVVAVNRFDDDTARHSLDEIRLALALPDHVPLIDCDARVRTSGKHVLVTLVDHLYQLALAQESASLEHHHHHH,not soluble
15,MLEFSSEVSLLDSVKNILLEYGLRFQEPQIEKVDKYIEELLGVPYNLTAHRDLDSAVHKNVVEILLPLKEELKGTLLDVGSGNGVPGLILAIFFSKLKVVLLDSREKSVNFLRGVIEKLDLENVSVVKERAENFSKERREEFDYVTARAVARLNVLVEICTPALKTGGKLLFYKGPSYIEELKEAQRAMKELKVELEKVREYSLKTGERRALLILRKYESSPEKYPRRVGVPFKRPLL,soluble
16,MVYDLAIIGGGINGCGIARDAAGRGHSVFLCEMNDLASGTSSWSTKLIHGGLRYLEYFEFRLVREALIERERLWQIAPHIIGPLRFVLPHHDGLRPAWRLRLGLFMYDYLGGRKLLPPTRSVDLAHDEVGKPLIPGRYTKGFEYSDCFVDDARLVVLTARDAAERGAEIRTRTRAVQVSQQGGIWQVTLEDVGSGARSTIQARALVNAAGPWVEGVLRSGAGVDARYKVRLVQGSHIVTRKLYDHDRAYIFQNADGRIVFAIPYQGDFTLIGTTDRDYHGDPSQVKATPEEIDYLCKAVSGYFAKPVTPADVVWTFSGVRPLYDDGASEAKAATRDYVFELDTPGGAPLLSIYGGKITTYRRLAEEALEKLSSYLKGGTAKQGWTAHQPLPGGDFPVDGGPALIGDLLREYPFLASAHASRLVHAYGTRARDVLGSAKSAADLGRDFGATLTEAEVRYLMSREWACSADDIVWRRSKLGLRLTPAAVAALDEWVIVHRAAEKPQQQAGGRALEHHHHHH,not soluble
17,MPAKDVQICPIAVDTTVFRSRTWDRLKFEIEYGLQRGTTANSYLISADKIALFDPPGESFTDNFVGTLIQRLDLNSLDYVILGHVNANRAHTLKLLLSLAPQATIICSNPAAQNLEKLLADAEVNNPIQVMKGNDHLDLGRGHELTFIPTPSPRYPGQLCTYDPRTEILFTDKLFGAHVCGDQVFDEGWTIYQEDRRYYFDCLLAPAAAQVSAALNKLEAYPAQTYAPSHGPLVRYGLRELTRNYQQWLEHHHHHH,soluble
18,MLRPKEACQRLGISYATLREYVKKGYIKPVILQSGKQRFGEEDVERLMGIIRKRKVILYARVSSSTQKDELVNQVKYLEEQVKEYDLVITDIGSGLNMKRKGFLKLLRMILNNEVSRVVVAYPDRLVRVGFEILEEVCKAHNCEIVVLNQEDKEEELVEDLMSALVSFSGKLYGMRSHEYEKVKKCAEELKNWKI,not soluble
19,MGSDKIHHHHHHMTIQIDLPETSTNKIIYSDECKDILNLSVAKIQEMFKSSGIILFRGFGITHELMQVFAEQFSSRLTRDDDKPLVEPNGFVSLVDIGMHEILPHRENGSSPFSPDAVWFCCTVPAAEGGETLFWDGIQVWQKLSEELRKLFISKKIKFVHKFPADKWKHFLGSDATISDAKRVLDGFNNVKYQIDQEESIYTEYICSAVLQTKYGNQNAFVNDIITGNSNLKGSVNLELESALTFEDGSLIPDAAIEEIEKVMYSLTQEIRWKPGDLVMIDNSRFLHGRRAFSDNRRRLFSLLSYLNF,not soluble
20,MAHHHHHHMKTDDHLSQIHRMCRALGIRPGAPAPLIQPALTLQCPRLHTPMVVHEKPAAKIALPMLLSDSSGDVSYLAGQDSVGTLRMTPPGSPRTPALTSVSNMRHHAHLATSELPVSVLVASALSFVAAWRTEDSACTAQKDLIHCCLKARCDLELEEAGGRHRLNQLLLTVSEQMHRFVVMGEYSKFVVFCVDQEPVWRQAARQLQKENEARLHTTENIYSRFLMEEIAVSDKMRMFQEASDFVVSQGHAAREQRRRAQILAARRRCDRQSAPQETPMPFAPQSHLHPHQHKNESNAAALAGGWTPPQRQRPRDDSTDRRSGSSKERSSKNAKSHSTTEVDRYRQRWRKIIWFLSNGERGKPAPH,not soluble
21,MYQVIRMYGAMEPWWFLDDWKEDITKVLEFDNYHEALQCYQKEWAKLRRRYSDFNSHGDIMTAFWNKQDQHWCEECGDYVQRYHSLALLTDWQETPSSWFRPTFTKQLEHHHHHH,soluble
22,MRNPKQTRGKQTKSKIINAAFELFSEKGYTGTSSNEIASRAEVAIGSFYSYFKDKKQLFIEVLKDYYDNISKISFSNINGTISNLDDFLYESIKIALKAHEYHPEFHREVNIMELADDDIKKLIVGYEKVKFDSFKKLVEPYKNEFKNLNFNEALFLIYTTIENTVHVITFSTDTNLNKETLIKELISMIKSYINA,not soluble
